{"source": "patent US20240261333A1", "about": "“NOVEL TARGETS FOR ENHANCING ANTI-TUMOR IMMUNITY” (THE BROAD INSTITUTE, INC., priority 2021, published 2024)", "key": {"[1]": {"molecular_target": "CANX (human) (UniProt P27824)", "sequence (P27824 21-592 limits assumed)": "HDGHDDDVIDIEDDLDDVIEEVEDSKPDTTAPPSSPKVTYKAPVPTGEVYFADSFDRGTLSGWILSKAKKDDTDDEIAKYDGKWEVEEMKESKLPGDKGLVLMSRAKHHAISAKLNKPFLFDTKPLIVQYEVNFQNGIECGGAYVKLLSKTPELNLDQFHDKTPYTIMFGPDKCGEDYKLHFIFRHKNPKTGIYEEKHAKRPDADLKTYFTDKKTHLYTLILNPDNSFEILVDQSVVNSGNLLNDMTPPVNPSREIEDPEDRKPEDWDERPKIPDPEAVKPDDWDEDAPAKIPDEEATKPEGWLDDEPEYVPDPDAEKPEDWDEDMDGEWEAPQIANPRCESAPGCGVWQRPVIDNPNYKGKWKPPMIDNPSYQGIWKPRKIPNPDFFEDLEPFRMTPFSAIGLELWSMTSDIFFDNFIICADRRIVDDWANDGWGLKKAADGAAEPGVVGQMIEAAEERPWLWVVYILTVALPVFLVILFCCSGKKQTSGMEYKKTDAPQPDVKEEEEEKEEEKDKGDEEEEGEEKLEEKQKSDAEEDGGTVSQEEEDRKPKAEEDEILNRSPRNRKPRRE", "experiment": "co-IP/MS, IgG control IP of C-FLAG B3GNT2 cell lysate"}, "[2]": {"molecular_target": "RPL23A (human) (UniProt P62750)", "experiment": "co-IP/MS, IgG control IP of C-FLAG B3GNT2 cell lysate"}, "[3]": {"molecular_target": "LRP1 (human) (UniProt Q07954)", "experiment": "co-IP/MS, IgG control IP of C-FLAG B3GNT2 cell lysate"}, "[4]": {"molecular_target": "RCN2 (human) (UniProt Q14257)", "sequence (Q14257 other isoform, or with tags, fused parts or gaps limits assumed)": "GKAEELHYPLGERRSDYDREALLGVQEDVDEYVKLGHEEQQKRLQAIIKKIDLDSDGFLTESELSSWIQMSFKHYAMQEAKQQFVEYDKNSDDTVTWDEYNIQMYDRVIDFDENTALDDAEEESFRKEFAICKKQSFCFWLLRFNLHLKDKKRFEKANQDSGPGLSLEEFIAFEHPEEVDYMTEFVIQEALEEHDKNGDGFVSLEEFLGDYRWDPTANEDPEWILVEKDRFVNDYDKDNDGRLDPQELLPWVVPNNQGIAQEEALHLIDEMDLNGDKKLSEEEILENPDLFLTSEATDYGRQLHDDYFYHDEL", "experiment": "co-IP/MS, IgG control IP of C-FLAG B3GNT2 cell lysate"}, "[5]": {"molecular_target": "CAPZA1 (human) (UniProt P52907)", "experiment": "co-IP/MS, IgG control IP of C-FLAG B3GNT2 cell lysate"}, "[6]": {"molecular_target": "ERLIN2 (human) (UniProt O94905)", "sequence (O94905 whole entry)": "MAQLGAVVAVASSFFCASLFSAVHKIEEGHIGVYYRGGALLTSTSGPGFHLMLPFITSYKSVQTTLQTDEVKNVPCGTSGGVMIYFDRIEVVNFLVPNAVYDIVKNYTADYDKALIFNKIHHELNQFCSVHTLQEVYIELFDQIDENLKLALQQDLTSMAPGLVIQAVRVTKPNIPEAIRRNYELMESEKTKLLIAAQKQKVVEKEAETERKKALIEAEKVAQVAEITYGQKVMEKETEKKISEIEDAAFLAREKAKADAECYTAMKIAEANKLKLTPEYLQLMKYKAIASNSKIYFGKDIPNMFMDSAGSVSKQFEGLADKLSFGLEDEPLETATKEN", "experiment": "co-IP/MS, IgG control IP of C-FLAG B3GNT2 cell lysate"}, "[7]": {"molecular_target": "RPS12 (human) (UniProt P25398)", "experiment": "co-IP/MS, IgG control IP of C-FLAG B3GNT2 cell lysate"}, "[8]": {"molecular_target": "PCBP1 (human) (UniProt Q15365)", "experiment": "co-IP/MS, IgG control IP of C-FLAG B3GNT2 cell lysate"}, "[9]": {"molecular_target": "PRDX2 (human) (UniProt P32119)", "sequence (P32119 2-198 limits assumed)": "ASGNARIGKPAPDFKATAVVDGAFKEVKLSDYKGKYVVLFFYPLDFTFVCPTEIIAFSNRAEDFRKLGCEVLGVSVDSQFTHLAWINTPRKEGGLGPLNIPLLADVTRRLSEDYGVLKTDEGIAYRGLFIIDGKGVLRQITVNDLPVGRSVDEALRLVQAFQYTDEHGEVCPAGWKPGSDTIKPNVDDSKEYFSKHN", "experiment": "co-IP/MS, IgG control IP of C-FLAG B3GNT2 cell lysate"}, "[10]": {"molecular_target": "UQCRC2 (human) (UniProt P22695)", "experiment": "co-IP/MS, IgG control IP of C-FLAG B3GNT2 cell lysate"}, "[11]": {"molecular_target": "RPS7 (human) (UniProt P62081)", "experiment": "co-IP/MS, IgG control IP of C-FLAG B3GNT2 cell lysate"}, "[12]": {"molecular_target": "RPL14 (human) (UniProt P50914)", "experiment": "co-IP/MS, IgG control IP of C-FLAG B3GNT2 cell lysate"}, "[13]": {"molecular_target": "ATP1A1 (human) (UniProt P05023)", "experiment": "co-IP/MS, IgG control IP of C-FLAG B3GNT2 cell lysate"}, "[14]": {"molecular_target": "RPL24 (human) (UniProt P83731)", "experiment": "co-IP/MS, IgG control IP of C-FLAG B3GNT2 cell lysate"}, "[15]": {"molecular_target": "RPLPO (human) (UniProt P05388)", "experiment": "co-IP/MS, IgG control IP of C-FLAG B3GNT2 cell lysate"}, "[16]": {"molecular_target": "SLC25A4 (human) (UniProt P12235)", "experiment": "co-IP/MS, IgG control IP of C-FLAG B3GNT2 cell lysate"}, "[17]": {"molecular_target": "CALU (human) (UniProt O43852)", "sequence (O43852 20-315 limits assumed)": "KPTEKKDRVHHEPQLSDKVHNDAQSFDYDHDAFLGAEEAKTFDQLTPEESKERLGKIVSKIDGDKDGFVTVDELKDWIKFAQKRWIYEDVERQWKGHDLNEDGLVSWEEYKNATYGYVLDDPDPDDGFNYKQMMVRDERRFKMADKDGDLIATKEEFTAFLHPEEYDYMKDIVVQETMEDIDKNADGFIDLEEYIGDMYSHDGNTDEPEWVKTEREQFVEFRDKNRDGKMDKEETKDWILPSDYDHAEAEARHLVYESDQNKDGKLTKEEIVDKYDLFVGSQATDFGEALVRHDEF", "experiment": "co-IP/MS, IgG control IP of C-FLAG B3GNT2 cell lysate"}, "[18]": {"molecular_target": "TGM3 (human) (UniProt Q08188)", "experiment": "co-IP/MS, IgG control IP of C-FLAG B3GNT2 cell lysate"}, "[19]": {"molecular_target": "RPL30 (human) (UniProt P62888)", "experiment": "co-IP/MS, IgG control IP of C-FLAG B3GNT2 cell lysate"}, "[20]": {"molecular_target": "DEFA3 (UniProt P59666)", "sequence (P59666 65-94 limits assumed)": "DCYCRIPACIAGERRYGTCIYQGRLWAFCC", "experiment": "co-IP, IgG control, N-FLAG B3GNT2 cell lysate, mass spectrometry"}, "[21]": {"molecular_target": "ARG1 (UniProt P05089)", "sequence (P05089 whole entry)": "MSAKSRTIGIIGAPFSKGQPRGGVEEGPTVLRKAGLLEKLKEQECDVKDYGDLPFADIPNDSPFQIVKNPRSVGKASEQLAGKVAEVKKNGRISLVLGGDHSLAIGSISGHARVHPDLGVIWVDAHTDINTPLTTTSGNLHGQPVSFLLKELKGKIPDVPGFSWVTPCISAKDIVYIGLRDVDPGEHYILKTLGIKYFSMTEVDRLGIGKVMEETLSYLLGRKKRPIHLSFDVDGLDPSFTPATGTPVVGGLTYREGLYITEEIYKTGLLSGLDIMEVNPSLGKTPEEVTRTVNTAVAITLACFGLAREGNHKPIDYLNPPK", "experiment": "co-IP, IgG control, N-FLAG B3GNT2 cell lysate, mass spectrometry"}, "[22]": {"molecular_target": "RPL35 (UniProt P42766)", "experiment": "co-IP, IgG control, N-FLAG B3GNT2 cell lysate, mass spectrometry"}, "[23]": {"molecular_target": "RPL3 (UniProt P39023)", "experiment": "co-IP, IgG control, N-FLAG B3GNT2 cell lysate, mass spectrometry"}, "[24]": {"molecular_target": "ITGB3 (UniProt P05106)", "sequence (P05106 27-788 limits assumed)": "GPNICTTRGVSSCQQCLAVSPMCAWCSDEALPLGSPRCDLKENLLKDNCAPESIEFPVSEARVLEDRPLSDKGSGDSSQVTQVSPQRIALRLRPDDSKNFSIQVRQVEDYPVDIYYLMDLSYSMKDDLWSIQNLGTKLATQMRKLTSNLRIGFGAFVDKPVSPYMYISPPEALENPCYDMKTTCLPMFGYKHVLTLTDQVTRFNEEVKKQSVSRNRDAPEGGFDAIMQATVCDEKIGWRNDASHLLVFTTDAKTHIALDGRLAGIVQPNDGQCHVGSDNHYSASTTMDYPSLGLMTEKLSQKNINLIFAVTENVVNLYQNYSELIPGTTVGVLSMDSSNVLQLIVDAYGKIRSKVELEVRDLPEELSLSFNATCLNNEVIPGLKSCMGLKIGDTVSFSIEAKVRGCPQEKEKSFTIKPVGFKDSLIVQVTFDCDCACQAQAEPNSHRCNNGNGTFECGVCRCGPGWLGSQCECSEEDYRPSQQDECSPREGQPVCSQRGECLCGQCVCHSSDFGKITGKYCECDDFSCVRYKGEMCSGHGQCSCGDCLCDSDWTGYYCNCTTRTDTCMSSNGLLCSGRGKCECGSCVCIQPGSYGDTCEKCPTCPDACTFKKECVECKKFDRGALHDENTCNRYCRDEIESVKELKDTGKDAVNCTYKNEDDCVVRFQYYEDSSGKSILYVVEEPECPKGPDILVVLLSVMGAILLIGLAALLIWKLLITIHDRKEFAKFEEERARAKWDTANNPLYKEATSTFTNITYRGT", "experiment": "co-IP, IgG control, N-FLAG B3GNT2 cell lysate, mass spectrometry"}, "[25]": {"molecular_target": "RPL22 (UniProt P35268)", "experiment": "co-IP, IgG control, N-FLAG B3GNT2 cell lysate, mass spectrometry"}, "[26]": {"molecular_target": "RPS2 (UniProt P15880)", "experiment": "co-IP, IgG control, N-FLAG B3GNT2 cell lysate, mass spectrometry"}, "[27]": {"molecular_target": "PBXIP1 (UniProt Q96AQ6)", "sequence (Q96AQ6 30-731 limits assumed)": "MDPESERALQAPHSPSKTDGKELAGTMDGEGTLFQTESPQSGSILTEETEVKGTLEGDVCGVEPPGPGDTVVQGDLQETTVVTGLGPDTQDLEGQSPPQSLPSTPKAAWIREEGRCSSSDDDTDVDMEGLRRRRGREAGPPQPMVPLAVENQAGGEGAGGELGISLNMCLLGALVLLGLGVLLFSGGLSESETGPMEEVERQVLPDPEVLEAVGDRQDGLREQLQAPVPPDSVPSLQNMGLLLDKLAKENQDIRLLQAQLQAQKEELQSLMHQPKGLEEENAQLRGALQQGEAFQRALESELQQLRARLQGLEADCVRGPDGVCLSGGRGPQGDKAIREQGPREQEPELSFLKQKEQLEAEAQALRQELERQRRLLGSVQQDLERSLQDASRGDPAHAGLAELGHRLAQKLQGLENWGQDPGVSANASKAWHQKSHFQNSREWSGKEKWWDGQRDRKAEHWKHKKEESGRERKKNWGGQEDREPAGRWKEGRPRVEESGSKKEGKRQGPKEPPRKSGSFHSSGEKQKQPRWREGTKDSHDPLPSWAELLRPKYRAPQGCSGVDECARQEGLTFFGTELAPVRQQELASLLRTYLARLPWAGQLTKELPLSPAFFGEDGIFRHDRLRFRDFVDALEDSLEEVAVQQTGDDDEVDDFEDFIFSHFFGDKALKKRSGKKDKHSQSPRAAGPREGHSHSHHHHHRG", "experiment": "co-IP, IgG control, N-FLAG B3GNT2 cell lysate, mass spectrometry"}, "[28]": {"molecular_target": "EMD (UniProt P50402)", "experiment": "co-IP, IgG control, N-FLAG B3GNT2 cell lysate, mass spectrometry"}, "[29]": {"molecular_target": "RPL27A (UniProt P46776)", "experiment": "co-IP, IgG control, N-FLAG B3GNT2 cell lysate, mass spectrometry"}, "[30]": {"molecular_target": "TAGLN (UniProt Q01995)", "sequence (Q01995 2-201 limits assumed)": "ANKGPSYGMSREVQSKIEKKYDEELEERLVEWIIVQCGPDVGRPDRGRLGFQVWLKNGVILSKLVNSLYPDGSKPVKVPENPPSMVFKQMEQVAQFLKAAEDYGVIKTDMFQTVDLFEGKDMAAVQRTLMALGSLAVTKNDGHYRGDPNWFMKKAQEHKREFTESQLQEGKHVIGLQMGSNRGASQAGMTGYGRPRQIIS", "experiment": "co-IP, IgG control, N-FLAG B3GNT2 cell lysate, mass spectrometry"}, "[31]": {"molecular_target": "RPS8 (UniProt P62241)", "experiment": "co-IP, IgG control, N-FLAG B3GNT2 cell lysate, mass spectrometry"}, "[32]": {"molecular_target": "RPS23 (UniProt P62266)", "experiment": "co-IP, IgG control, N-FLAG B3GNT2 cell lysate, mass spectrometry"}, "[33]": {"molecular_target": "PSMA7 (UniProt O14818)", "experiment": "co-IP, IgG control, N-FLAG B3GNT2 cell lysate, mass spectrometry"}, "[34]": {"molecular_target": "RPS13 (UniProt P62277)", "experiment": "co-IP, IgG control, N-FLAG B3GNT2 cell lysate, mass spectrometry"}, "[35]": {"molecular_target": "DDX20 (UniProt Q9UHI6)", "sequence (Q9UHI6 whole entry)": "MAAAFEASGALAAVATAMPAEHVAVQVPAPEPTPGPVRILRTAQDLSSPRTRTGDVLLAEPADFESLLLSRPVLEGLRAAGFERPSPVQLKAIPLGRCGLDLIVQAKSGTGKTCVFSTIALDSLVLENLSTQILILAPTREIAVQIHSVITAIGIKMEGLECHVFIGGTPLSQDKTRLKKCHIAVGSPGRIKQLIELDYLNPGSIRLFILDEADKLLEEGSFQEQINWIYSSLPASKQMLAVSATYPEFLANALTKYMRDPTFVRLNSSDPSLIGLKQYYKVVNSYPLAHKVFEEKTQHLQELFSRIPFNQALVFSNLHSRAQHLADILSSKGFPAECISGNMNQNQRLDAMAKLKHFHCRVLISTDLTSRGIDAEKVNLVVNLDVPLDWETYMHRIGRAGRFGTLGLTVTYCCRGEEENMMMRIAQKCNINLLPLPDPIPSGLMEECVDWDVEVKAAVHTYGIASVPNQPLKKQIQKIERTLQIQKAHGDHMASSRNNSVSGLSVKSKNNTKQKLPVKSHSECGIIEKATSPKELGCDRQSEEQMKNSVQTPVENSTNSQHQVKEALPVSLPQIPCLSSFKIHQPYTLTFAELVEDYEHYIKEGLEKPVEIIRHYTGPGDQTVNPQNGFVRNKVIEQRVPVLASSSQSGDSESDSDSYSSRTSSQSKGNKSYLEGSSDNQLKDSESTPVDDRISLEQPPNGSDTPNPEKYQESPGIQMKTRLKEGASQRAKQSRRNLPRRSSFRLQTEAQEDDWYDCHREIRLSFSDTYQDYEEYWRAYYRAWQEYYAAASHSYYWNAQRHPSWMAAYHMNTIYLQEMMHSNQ", "experiment": "co-IP, IgG control, N-FLAG B3GNT2 cell lysate, mass spectrometry"}, "[36]": {"molecular_target": "NCCRP1 (UniProt Q6ZVX7)", "sequence (Q6ZVX7 whole entry)": "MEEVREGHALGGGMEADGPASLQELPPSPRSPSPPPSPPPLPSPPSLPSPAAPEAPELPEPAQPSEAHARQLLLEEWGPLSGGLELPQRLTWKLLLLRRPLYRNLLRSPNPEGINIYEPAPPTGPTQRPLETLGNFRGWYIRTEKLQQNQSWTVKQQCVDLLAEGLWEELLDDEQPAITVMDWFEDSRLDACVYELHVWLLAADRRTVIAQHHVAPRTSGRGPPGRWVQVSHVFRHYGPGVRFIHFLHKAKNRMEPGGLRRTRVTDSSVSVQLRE", "experiment": "co-IP, IgG control, N-FLAG B3GNT2 cell lysate, mass spectrometry"}, "[37]": {"molecular_target": "HSPB1 (UniProt P04792)", "experiment": "co-IP, IgG control, N-FLAG B3GNT2 cell lysate, mass spectrometry"}, "[38]": {"molecular_target": "EIF4G1 (UniProt Q04637)", "experiment": "co-IP, IgG control, N-FLAG B3GNT2 cell lysate, mass spectrometry"}, "[39]": {"molecular_target": "RPL5 (UniProt P46777)", "experiment": "co-IP, IgG control, N-FLAG B3GNT2 cell lysate, mass spectrometry"}, "[40]": {"molecular_target": "SRSF3 (UniProt P84103)", "experiment": "co-IP, IgG control, N-FLAG B3GNT2 cell lysate, mass spectrometry"}}}
{"substance": "IgG control (Millipore Sigma 12-371) (antibody)", "values": [{"measurement": "co-IP mass spectrometry count", "setting": "[1]", "result": 0}, {"measurement": "co-IP mass spectrometry count", "setting": "[2]", "result": 4}, {"measurement": "co-IP mass spectrometry count", "setting": "[3]", "result": 0}, {"measurement": "co-IP mass spectrometry count", "setting": "[4]", "result": 0}, {"measurement": "co-IP mass spectrometry count", "setting": "[5]", "result": 0}, {"measurement": "co-IP mass spectrometry count", "setting": "[6]", "result": 0}, {"measurement": "co-IP mass spectrometry count", "setting": "[7]", "result": 4}, {"measurement": "co-IP mass spectrometry count", "setting": "[8]", "result": 3}, {"measurement": "co-IP mass spectrometry count", "setting": "[9]", "result": 0}, {"measurement": "co-IP mass spectrometry count", "setting": "[10]", "result": 0}, {"measurement": "co-IP mass spectrometry count", "setting": "[11]", "result": 5}, {"measurement": "co-IP mass spectrometry count", "setting": "[12]", "result": 8}, {"measurement": "co-IP mass spectrometry count", "setting": "[13]", "result": 0}, {"measurement": "co-IP mass spectrometry count", "setting": "[14]", "result": 3}, {"measurement": "co-IP mass spectrometry count", "setting": "[15]", "result": 0}, {"measurement": "co-IP mass spectrometry count", "setting": "[16]", "result": 0}, {"measurement": "co-IP mass spectrometry count", "setting": "[17]", "result": 0}, {"measurement": "co-IP mass spectrometry count", "setting": "[18]", "result": 3}, {"measurement": "co-IP mass spectrometry count", "setting": "[19]", "result": 4}, {"measurement": "co-IP mass spectrometry count", "setting": "[20]", "result": 3}, {"measurement": "co-IP mass spectrometry count", "setting": "[21]", "result": 4}, {"measurement": "co-IP mass spectrometry count", "setting": "[22]", "result": 2}, {"measurement": "co-IP mass spectrometry count", "setting": "[23]", "result": 3}, {"measurement": "co-IP mass spectrometry count", "setting": "[24]", "result": 0}, {"measurement": "co-IP mass spectrometry count", "setting": "[25]", "result": 0}, {"measurement": "co-IP mass spectrometry count", "setting": "[26]", "result": 10}, {"measurement": "co-IP mass spectrometry count", "setting": "[27]", "result": 0}, {"measurement": "co-IP mass spectrometry count", "setting": "[28]", "result": 0}, {"measurement": "co-IP mass spectrometry count", "setting": "[29]", "result": 3}, {"measurement": "co-IP mass spectrometry count", "setting": "[30]", "result": 0}, {"measurement": "co-IP mass spectrometry count", "setting": "[31]", "result": 7}, {"measurement": "co-IP mass spectrometry count", "setting": "[32]", "result": 6}, {"measurement": "co-IP mass spectrometry count", "setting": "[33]", "result": 0}, {"measurement": "co-IP mass spectrometry count", "setting": "[34]", "result": 2}, {"measurement": "co-IP mass spectrometry count", "setting": "[35]", "result": 0}, {"measurement": "co-IP mass spectrometry count", "setting": "[36]", "result": 4}, {"measurement": "co-IP mass spectrometry count", "setting": "[37]", "result": 4}, {"measurement": "co-IP mass spectrometry count", "setting": "[38]", "result": 2}, {"measurement": "co-IP mass spectrometry count", "setting": "[39]", "result": 0}, {"measurement": "co-IP mass spectrometry count", "setting": "[40]", "result": 4}]}
